According to patent publication US20140322216A1:

Biological target: human glypican-3 naturally expressed on the cell surface (HepG2 and other GPC3+ cell lines) (human) (UniProt P51654)
Test: flow cytometry on HepG2, 1G12 with anti-mouse dye, grey = isotype control; on Hs578T the histogram lies on the control's

Chain of human glypican-3 naturally expressed on the cell surface (HepG2 and other GPC3+ cell lines) (human) (P51654 25-554 limits assumed): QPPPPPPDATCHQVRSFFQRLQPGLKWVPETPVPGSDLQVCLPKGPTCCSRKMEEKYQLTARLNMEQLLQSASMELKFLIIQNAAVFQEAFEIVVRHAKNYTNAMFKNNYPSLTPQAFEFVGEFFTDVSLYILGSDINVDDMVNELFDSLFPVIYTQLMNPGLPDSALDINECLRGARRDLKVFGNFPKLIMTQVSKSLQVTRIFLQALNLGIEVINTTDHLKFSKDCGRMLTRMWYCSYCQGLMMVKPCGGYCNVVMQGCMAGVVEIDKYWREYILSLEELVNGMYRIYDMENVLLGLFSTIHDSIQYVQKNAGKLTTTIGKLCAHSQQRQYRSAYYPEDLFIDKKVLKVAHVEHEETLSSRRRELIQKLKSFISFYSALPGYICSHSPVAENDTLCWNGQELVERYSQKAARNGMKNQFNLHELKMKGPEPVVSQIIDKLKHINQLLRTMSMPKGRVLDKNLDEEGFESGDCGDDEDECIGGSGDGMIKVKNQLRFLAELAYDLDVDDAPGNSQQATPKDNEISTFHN

- % of cells in the positive gate: 46.1%
Substance: commercial monoclonal anti-human GPC3 antibody (clone 1G12)
